In the nanobody polyreactivity screen of Harvey et al. (2022):

Assay: yeast display, Sf9 membrane polyspecificity reagent, FACS + sequencing; frameworks hold sequencing errors
Method in brief: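 Galactose induction of a Saccharomyces cerevisiae BJ5465 synthetic nanobody display library ran 36–48 hours. The cells were then stained for 1 hour at 4 °C with 10% biotinylated, detergent-solubilized Sf9 membrane reagent, pulled down on streptavidin microbeads and FACS-sorted into low and high (top ~1%) gates on expression and reagent-binding fluorescence. Labels for polyreactivity follow the gate of origin.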

| Sequence | polyreactivity (PSR sort gate) |
| --- | --- |
| QVQLVESGGGLVQAGGSLRLSCAASGRTVRVYAMGWYRQAPGKERELVAAINGGGSTNYADSVKGRFTISRDSAKNTVYLQMNSLKPEDTAVYYCNATGRRSKRIYDYWGQGTQVTVSS | high polyreactivity |
| QVQLVESGGGLVQAGGSLRLSCAASGRTLKYYAMGWYRQAPGKERELVAAITWSGTRTFYADSVKGRFTISRDNAKNTVYLQMNSLKPEDTAVYYCARTYYGGAGYEYWGQVTQVTVSS | high polyreactivity |
| QVQLVESGGGLVQAGGSLRLSSAASGRTSYVYAMGWYRQEPGKERELVAVITRRGGSTYYADSVKGRFTISRDNAKNTVYLQMNSLKPEDTAVYYCNAAYTTWRRGPMNYWGQGTQVTVSS | high polyreactivity |
| QVQLVESGGGLVQAGGSLRLSCAASGRIFWVNVMGWSRQAPGKERELVAAITRGASTYADSVKGRFTISRDNAKNTVYLQMNSLKPEDTAVYYCAADTKRRSIRYDYWGQGTQVTVSS | high polyreactivity |
| QVQLVESGGGLVQAGGSLRLSCAASGSIFGHYAMGWYRQAPGKERELVAAISYSGGSTYYADSVKGRFTISRDNAKNTVYLQMNILKPEDTAVYYCNADLYDAGSEMDYWGQGTQVTVSS | high polyreactivity |
| QVQLVVSGGGLVQAGGSLRLSCAASGGTFGGYAMGWYRQAPGKERELVAVITQRGGSTSYADSVKGRFTISRDNAKNTVYLQLNSQKREDTAVYYCNASAWLVVARTRYGYWGQGTQVTVSS | low polyreactivity |
| QVQLVESGGGLVQARGSLRLSSAASGYIFYHYAMGWYRQSPGKERELVAAISSGGGSTYYADSVKGRFTISRDYAKNTVSLQINSLKPEDTAVYYCNAVRYYTKYDYWGQGTQVTVSS | high polyreactivity |
| QVQLVESGGGLVQAGGSLRLSCAASGRTFKLYAMGWYRQAPGKERALVAAITESGGSTYYADSVKGRFTISRDNAKNTVYLQMNSLKPEDTAVYYCAAYASAGTRGGYDYWGQGTQVTVSS | low polyreactivity |
| QVQLVESGGGLVQAGGSLRLSCAASGRILIWYAMGWYRQAPGKERELVAAINWSGSSTSYADSVKGRFTISRDNAKNTVYLQMNSLKPEDTAVYYCAAGRLTTYTPGNRYYYWGQGTQVTVSS | high polyreactivity |
| QVQLVESGGGLVKAGGSLRLSCAASGSTFSRNTMGWYRQAPGKERELVAAITKSAVSTYYADTVTGRFTISRDNAKNTDYLEMNSLKPEDTAVYYSAKVYRTSTSKAYDYWGQGTKVTVSS | high polyreactivity |
| QVQLVESGGGLVQAGGSLRLSCAASGRTFVRYAMGWYRQAPGKERELVAAISLRGGRTYYADSVKGRFTISRDYANNTVYLQMNSRNPEDTAVYYCAARSYPTGASFDYWGQGTQVTVSS | high polyreactivity |
| QVQLVESGGGLVQAGGSLRLSCAASGLTFYHYDMGWYRQAPGKERELVAAINFSAGITYYADSVKGRFTISRDNAKNTVYLQMNSLKPEDTAVYYCAAEPEWWWRGYGYWGQGTQVTVSS | low polyreactivity |
| QVQLVESGGGLVQAGGSLRLSCAASGFIFRHYAMGWYRQAPGKARELVAVINWSGSSTYYADSVKGRFTISRDNAKNTVYLQMNSLKPEDTAVYYCAVRSLRVDKYGYWGQGTQVTVSS | high polyreactivity |
| QVQLVESGGGLVQAGGSLRLSSAASGSIFKYNAMGWYRQAPGEERELVAAIRWSGGSTYYADSVKGRFTISRDNAKNTVYLQMNSLKPEDTAVYYCAAEYFNQNTRQGYDYWGQGSQVTVSS | low polyreactivity |
| QVQLVESGGGLVQAGGSLRLSSAASGRNFGPYTMRWSRQAPGKERELVATISYSGSTTYYADSVKGRFTISRDNAKNTVYLQMNSLKPEDTAVYYCNAQYYVFITFDYWGQGTQVTVSS | high polyreactivity |
| QVQLVESGGGLVQAGGSLRLSCAASGRNLYYNAMGWYRHAPGKERELVAAITFRGGSTSYADSVKGRFTISRDNAKNTVYLQMNSLKPEDTAVYYCAAGYTWRQSWYPFDYWGQGTQVTVSS | high polyreactivity |
| QVQIVESWGGLVQAGGSLRVSCATSGGIFRFNAMGSYRHAPGKERELVAAITSSVGSTYYADSVKGRFTFSRDNAKNTVDLQLNSLKPEDTAVDDCAAVITRVAIVFSTEYDYWGQGTQVTVSS | low polyreactivity |
| QVQLVESGGGLVQAGGSLRLSCAASGRIFWYYAMGWYRQAPGKERELVDAISVDGGSTYDADSVKGRFTISRDNAKNTVYLQMNSLKPEDTAIYYCAAQKYPGFTHGYWGQGTQVTVSS | low polyreactivity |
| QVQLVESGGGLVQAGGSLRLSCAASGRIFLKYTMGWYRQAPGKERELVAAISRGGSTYYADSVKGRFTISRDNAKNTVYLQMNSLKPEDTAVYYCAATSYRRTGYNYWGQGTQVTVSS | high polyreactivity |
| QDQLVESVGGLVQAGGSLPLSSAASGLTFKRNAMRWYSQAPGKERELVAAIRYSTDSTNYADSVKGRFTISRDNAKNTVYCQMNSLKPESTAVYYCAKDKQDYEYWGQGTQVTVSS | low polyreactivity |
| QVQLVESGGGLVQAGGSLRLSCAASGRIFLRNDMGWYRQAPGKERELVAGISSDGSTYYADSVKGRFTISRDNAKNTVYLQMNSLKPEDTAVYYCAAERWGNPTDYQFWRPYDYWGQGTQVTVSS | low polyreactivity |
| QVQLVESGGGLVQAGGSLRLSCAACGSIVRDYAMGWYRQAPGKERELVAAIRQSGGRTYYADSVKGRFTISRDNAKNTVYLQMNSLKPDDTAVYYCIARRANYWKKASTQYYYWGQGTQVTVSS | high polyreactivity |

| Sequence | polyreactivity (PSR sort gate) |
| --- | --- |
| QVQLVEAGGGLVQAGGSLRLSCATSGGIFPPNAMGWYRQAPGKERELVASISSDGSTNYADSVKGRFTISRDNAKNTFYLQMISLKPEDTAVYFCAADSTTTWARLHVRRYYYWGQGTQVTVSS | low polyreactivity |
| QVQLVESGGGLVQAGGSLRLSCAASGRIFGYNAMGWYRQAPGKERELVAAIDYTGGSTYYADSVKGRFTISRDNAKNTVYLQMNSLKPEDTAVYYCAKDRTTPWEEDDYWGQGTQVTVSS | low polyreactivity |
| QVQLVESGGGLVQAGGSLRLSCAASGIILSDNAMGWYRQAPGKEREFVAAITGSCGSTYYADSVKGRFTISRDYAKKTDDLQMNSLKPEDTAVYYCSADGPFGYYYGHYGYWGQVTQVTVSS | low polyreactivity |
| QVQLVESGGCLVQAGGRLRLSCAASGLTLYKNGMGWYRQAPGKERELVAVISRSGGRTYYADSVKGRFTISRDNAKNTVFLHMNSLKPEDTAVYYCAALQYGPRYTYYYWGQGTQVTVSS | high polyreactivity |
| QVQLVESGGGLVQAGGSLRLSCAASGSTFGDNAMGWYRQAPGKERELVARISSGGNTYYADSVKGRFTISRDNAKNTVYLQMNSLKPEFTAVYYCAADIIVRYKKFPYYYWGQGTQVNVSS | high polyreactivity |
| QVQLVESGGGLVQAGGSLPLSCAASRLIFTPYAMGWYIQAPGKERELVAAINYGGSRTYYADSVKGRFTISRDNAKNTVYLQMNSLKPEDTAVYYCAARGYTLSYVDMYYWGQGTQVTVSS | high polyreactivity |
| QVQLVESGGALVQAGGSLRLSCAASGFTFRTYAMGWYRQAPRKERELVADISGSGGSTYYADSVKGRFTISRDNPKNTVYLQMNSLKPEDTAVSYCAADYASWSNWGYEYWGQGTQVTVSS | high polyreactivity |
| QVQLVESGGGLVQAGGSLRLSCAASGFIVGRYAMGWYRQAPGNERELVAAITRSGGSTYYADSVKGRFTISRDNAKNTVYLQMISLKPEQTAVYFGAAYPGRAQVAYDYWGQGTQVTVSS | high polyreactivity |
| QVKLLDSGGGLVQAGGSLRLSCSASGFTFNNYAMVWYRQAPGKERELVAAISWAGGSTYYADSVKGRFTISRDNAKNTVYLQMNTLKPEDTAVYYCAKRIRYTTRPTYGFYYWGQGTQVTVSS | high polyreactivity |
| QVQLVESGGGLVQAGGSLRLSCAASGRILFGYAMGWYRQAPGKERELVADITSTGSTNYADSVKGRFTISRDNAKNTVYLQMNSLKPEDTAVYYCNARRESYYQRYRVDYWGQGTQVNVSS | low polyreactivity |
| QVQLVESGGGLVQAGGSPRLSCAASGRTFVFKAMGWYRQAPAKERELVAAITDTTGSTYYADSVKGRFTISRDNAKNTVYLQMNSLKPEDTAVYYCNARVYRPFYYWGQGTQVTVSS | low polyreactivity |
| QVQLVESGGGLVHAGGRLRLSFAASGSIFAVYAMGWYRQAPGKEREFVARIAWGGGRTYYADSVKGRFTISRDNAQNTVYLQMNSLKPEDTAVYYCNAERAGTYRYDYWGQGPQVTVSS | high polyreactivity |
| QVHLVESGGGLVQAGGSLRLSCAASGKIFRSYMGWYRQAPGKERELVASISRRGGSTYYADSEKGRFTISRDNAKNTVTLQMISLKPEDTAVYYCANVVNYPSARYCYWGQGTQVTVSS | high polyreactivity |
| QVQLVESGGGFVQAGRSLRISSAPSGLMFLGKAMGWYRPAPGKERDLVGGIRALGGTTSYAYSVKGRFTISRDNAKNTVFLQLICKKPEDTELYVCAASYVSSRYFVLRHGDYYWGKGTQVTVSS | low polyreactivity |
| QVQLVESGGGLVQAGGSLRLSCAASGRIFVANAMGWYRKAPGTERELVAAISRRGGRTYYADSVKGRFTISRDNAKNTVYLQMNSLKPEDTAVYYCAAIRSVTRFPRRYDYWGQGTPVTVSS | high polyreactivity |
| QVQLVESGGGLVQAGGSLSLSCAASGITFGLYTLGWYRQAPGKERELVASISQSGGSTYYADSVKGRFTNSRDNAKNTVYLQMNSQKQEDTAVYYCNARRRFWDFSTRGYDSWGQGTQGTVSS | high polyreactivity |
| QLQLVESGGGLVQAGGSLRLSCAASGFISWCNAMGWYRQAPGKERELVAAISWRDARTYYADSVKGRFTLSRDNAKNTVYLQMNSLKPEDTAVYYCNAVTAYVSRYLRGYRWFDYWGQGTQVTVSS | low polyreactivity |
| QVQLEESGGCLVQAGGRIRLSCAASGLTFHRYAMGWYRQAPGKERELVAAINYSGGRTYYADSVKGRFTISRDNATNNVYLQMNSLKPEDTAVYYCAAPSASGYYWGQGNQVTVSS | high polyreactivity |
| QVQLVESVGGLVQAGGSLRLTCAASGFTFDKYAMGWYRQAPGKERELVAAISNSGGRTYYADSVKGRFTISRDNAKNTVYLQMNSLKPEDTAVYYCAAVALTRRYDYWGQGTQVTVSS | high polyreactivity |
| QVQLVESGGGLVQAGGSLRLSCAASGSIFSRNTMGWYRQAPGKERELVATITSGSNTNYADSVKGRFTISRDNAKNTVYLQMNSLKPEDTAVYYWGQGTQVTVSS | low polyreactivity |
| QVQLVESGGGLVQAGGSLRLSCAASGFYYGMGWYRQAPGKERELVAAISRGGSTYYADSVKGRFTISRDNAKNTVYLQMNSLKPEDTAVYYCAATYRSLYGSRMGYWGQGTQVTVSS | high polyreactivity |
